B1: central stalk γε complex of the A. woodii F1 ATP synthase (atpG and atpC expressed bicistronically, His6 tag on ε) (complex, Acetobacterium woodii)
chain 1: MAENVQDIKRRIKSVNSTMQITHAMELVASAKLRKSRELAEGRRPYFEAMIESIGRIVEKSGNARNIFMDQREVKKTAYIIITGDKGLAGGYNVNVAKLVEEHITDKENAVLFTVGSRGRDHFRNREYHIQGEYLGISERPNFFNAKEVTAIVMEGFKNGEYDEVYIAYTKFVSTITQHAQMMKLLPLSAEELITSGKVKTTEETKEEKSKMSDRELTIMTYEPEPEELLKYLIPNFVSSTVYGSMIESAASEQGARRTAMESATTNANEMIDGLTLQYNRVRQAAITQEISEIVGGAEALN
chain 2: MAETFRLKIIAPTGVFFDDDIERVVIRGIEGELAILAEHTPLTTNVAIGTFNIIFADKKKKNGTLLGGIATINPRETIILTDAAEWPEEIDIKRAQEAKERALKRIHDDKFDTARARAALERAIARINSKENV
notes: ATP synthase subunit gamma (gene atpG) of the Na+-F1FO-ATP synthase, Acetobacterium woodii; ATP synthase subunit epsilon (gene atpC) of the Na+-F1FO-ATP synthase, Acetobacterium woodii; source: E. coli BL21gold(DE3), co-expressed, purified (Ni-NTA, SEC); copies: 1 + 1
B2: in vitro assembled αβ heterodimer (StrepI-α with His6-β, in ATP/Mg2+ or other nucleotide/Mg2+) (complex, Acetobacterium woodii)
chain 1: MNLRPEEISQIIKNEIERYEDKLEVVDVGTVIQVGDGVARVHGLENAMAGELLAFPNEVYGMVLNLEEDNVGCVLLGYDDDIVEGDIVRCTGRIVEVPVGEAMIGRVVNALGFPVDGKGPIVTDHRRPVEVKAAGVIERESVNQPIQTGYKAIDSMIPIGRGQRELIIGDRQTGKTALAIDTIINQKGEDVICIYVAIGQKDSTVAQIVGQLEENNAMDYTIIVSAGAAQLAPLQYIAPYSGVTMAEYFMNEQQKDVLIIYDDLSKHAVAYRAMSLILRRPPGREAYPGDVFYLHSRLLERAAKLKAGGSITALPIIETQAGDVSAYIPTNVISITDGQIFLEAELFRSGIRPAVNPGISVSRVGGSAQIKSMKKVAGPLRIEYAQYRELASFAQFGSDLDDETKAQLAKGERIVEILKQDQYDPMNVEDQVLILYAATNGFLLDIEVKDIREFEKGLIKFAQKKYPEIMTKVKGKDGLSDEVVAAFAECIEAYKKVFSKSV
chain 2: MAQNIGKVVQVIGPVVDVKFQKDKLPKLNNAVNIELNGHTLVIEVAQQLGDDIVRCIAMDSTDGLMRNQEAVDTGSAIQVPVGKATLGRMFNVLGEPIDGKPFDTKDVVMHPIHRHPPSFEEQQTQPEMFETGIKVVDLICPYVRGGKIGLFGGAGVGKTVLIQELINNIATQHGGLSVFAGVGERTREGNDLYYEMMESGVINKTALCFGQMNEPPGARMRIALAGLTMAEYFRDDEGQDVLLFIDNIFRFTQAGSEVSALLGRMPSAVGYQPTLATEMGALQERITSTSKGSITSVQAVYVPADDLTDPAPATTFAHLDATTVLSRAITEKGIYPAVDPLDSTSRILDPKIVGQEHYETAREVQEILQRYKELQDIIAILGMDELSDADKITVSRARKVERFLSQPFNVAEQFTGTAGVYVTIGDTIKGFKEILEGQHDDLPESAFLLVGTIEDAVVKAKKIKG
notes: ATP synthase subunit alpha (gene atpA), Acetobacterium woodii; as m1; ATP synthase subunit beta (gene atpD), Acetobacterium woodii; as m2; also called in vitro αβ; source: assembled in vitro from subunits purified from E. coli BL21gold(DE3); not shown: StrepI, N-terminal, kept; His6, N-terminal, kept; copies: 1 + 1
B3: α-subunit of the F1 part of the Na+-F1FO-ATP synthase of Acetobacterium woodii, N-terminal StrepI tag (natural protein, UniProt P50000 1-502, looked up)
chain: MNLRPEEISQIIKNEIERYEDKLEVVDVGTVIQVGDGVARVHGLENAMAGELLAFPNEVYGMVLNLEEDNVGCVLLGYDDDIVEGDIVRCTGRIVEVPVGEAMIGRVVNALGFPVDGKGPIVTDHRRPVEVKAAGVIERESVNQPIQTGYKAIDSMIPIGRGQRELIIGDRQTGKTALAIDTIINQKGEDVICIYVAIGQKDSTVAQIVGQLEENNAMDYTIIVSAGAAQLAPLQYIAPYSGVTMAEYFMNEQQKDVLIIYDDLSKHAVAYRAMSLILRRPPGREAYPGDVFYLHSRLLERAAKLKAGGSITALPIIETQAGDVSAYIPTNVISITDGQIFLEAELFRSGIRPAVNPGISVSRVGGSAQIKSMKKVAGPLRIEYAQYRELASFAQFGSDLDDETKAQLAKGERIVEILKQDQYDPMNVEDQVLILYAATNGFLLDIEVKDIREFEKGLIKFAQKKYPEIMTKVKGKDGLSDEVVAAFAECIEAYKKVFSKSV
notes: ATP synthase subunit alpha (gene atpA) of the Na+-F1FO-ATP synthase, Acetobacterium woodii; also called α[WT]; StrepI-α; source: E. coli BL21gold(DE3), purified (Strep-Tactin, SEC); not shown: StrepI, N-terminal, kept

Conditions in all cases: both partners purified
Experiment [1] addresses T1, α[R363Q]β[WT] heterodimer assembled in vitro in ATP/Mg2+ (Acetobacterium woodii, UniProt P50000 1-502; P50002 1-466, R363Q).
T1 construct: ATP synthase subunit alpha (gene atpA), Acetobacterium woodii; as m9; ATP synthase subunit beta (gene atpD), Acetobacterium woodii; as m2; source: assembled in vitro from subunits purified from E. coli BL21gold(DE3); not shown: His6, N-terminal, kept; copies: 1 + 1
The experiment in a line: native MS; LILBID-MS; purified subunits incubated in 50 mM KPi, 200 mM NaCl, 2 mM ATP, 2 mM MgCl2, 10% glycerol, pH 7.4, 4 °C, 1 h; exchanged into 100 mM ammonium acetate, 2 mM ATP, 2 mM MgCl2, pH 7.4.

In experiment [2] the target is B2. Described as above.
The target in experiment [3] is B1. The experiment is described as above.
The target of experiment [4] is B3. The experiment is described as above.
Experiment [5] concerns the target T2, α-subunit mutant α[R363Q], A. woodii (Acetobacterium woodii, UniProt P50000 1-502, R363Q).
T2 construct: ATP synthase subunit alpha (gene atpA), Acetobacterium woodii, point mutant; source: E. coli BL21gold(DE3), purified (Strep-Tactin, SEC)
The experiment is described as follows: SEC; HPLC on a bioZen 1.8 µm SEC-3 column, 60 µg protein, elution buffer B (50 mM KPi, 200 mM NaCl, 2 mM ATP, 2 mM MgCl2, pH 7.4), 4 °C. For orientation: In gel filtration, larger molecules generally elute earlier.

Experiment [6] deals with T3, α-subunit mutant α[R363K], A. woodii (Acetobacterium woodii, UniProt P50000 1-502, R363K).
T3 construct: ATP synthase subunit alpha (gene atpA), Acetobacterium woodii, point mutant; source: E. coli BL21gold(DE3), purified (Strep-Tactin, SEC)
The description is as above.

Turning to B1, the binding result in experiment [1] and in experiment [2] was “binds” throughout.

B2: in experiment [3], the “stoichiometry N” value came to 3.

Take B3: the “stoichiometry N” value in experiment [3] is ≤ 1.

B4: β-subunit of the F1 part of the Na+-F1FO-ATP synthase of Acetobacterium woodii, N-terminal His6 tag (natural protein, UniProt P50002 1-466, looked up)
chain: MAQNIGKVVQVIGPVVDVKFQKDKLPKLNNAVNIELNGHTLVIEVAQQLGDDIVRCIAMDSTDGLMRNQEAVDTGSAIQVPVGKATLGRMFNVLGEPIDGKPFDTKDVVMHPIHRHPPSFEEQQTQPEMFETGIKVVDLICPYVRGGKIGLFGGAGVGKTVLIQELINNIATQHGGLSVFAGVGERTREGNDLYYEMMESGVINKTALCFGQMNEPPGARMRIALAGLTMAEYFRDDEGQDVLLFIDNIFRFTQAGSEVSALLGRMPSAVGYQPTLATEMGALQERITSTSKGSITSVQAVYVPADDLTDPAPATTFAHLDATTVLSRAITEKGIYPAVDPLDSTSRILDPKIVGQEHYETAREVQEILQRYKELQDIIAILGMDELSDADKITVSRARKVERFLSQPFNVAEQFTGTAGVYVTIGDTIKGFKEILEGQHDDLPESAFLLVGTIEDAVVKAKKIKG
notes: ATP synthase subunit beta (gene atpD) of the Na+-F1FO-ATP synthase, Acetobacterium woodii; also called β[WT]; His6-β; source: E. coli BL21gold(DE3), purified (Ni-NTA, SEC); also co-expressed with other F1 subunits in E. coli as the tagged subunit of the in cellula complexes; not shown: His6, N-terminal, kept
With B4, the binding result in experiment [4], in experiment [5] and in experiment [6] was “binds” in each case. Also, the “stoichiometry N” value in experiment [3] was ≤ 1.

A word on the stoichiometry N: it is the number of molecules, sites or subunits per partner or assembly.

The values are drawn from article PMC8904574, “Bacterial F-type ATP synthases follow a well-choreographed assembly pathway” (Nature Communications, 2022).
